Results: patent US20020012964

Experiments:
[1] = target: T1, GST-cdc25c (200 to 250 amino acids) (UniProt P30307)
T1 sequence: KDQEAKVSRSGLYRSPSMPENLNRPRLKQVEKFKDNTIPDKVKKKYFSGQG

[2] = tested on: histone H1 (J. Biochem. 100, 359, 1986)
[3] = target: GST-weel (Accession number U10564) (UniProt P30291)
[4] = target: T2, GST-cdc25c (full-length) (Accession number L26584) (UniProt P30307)
T2 sequence: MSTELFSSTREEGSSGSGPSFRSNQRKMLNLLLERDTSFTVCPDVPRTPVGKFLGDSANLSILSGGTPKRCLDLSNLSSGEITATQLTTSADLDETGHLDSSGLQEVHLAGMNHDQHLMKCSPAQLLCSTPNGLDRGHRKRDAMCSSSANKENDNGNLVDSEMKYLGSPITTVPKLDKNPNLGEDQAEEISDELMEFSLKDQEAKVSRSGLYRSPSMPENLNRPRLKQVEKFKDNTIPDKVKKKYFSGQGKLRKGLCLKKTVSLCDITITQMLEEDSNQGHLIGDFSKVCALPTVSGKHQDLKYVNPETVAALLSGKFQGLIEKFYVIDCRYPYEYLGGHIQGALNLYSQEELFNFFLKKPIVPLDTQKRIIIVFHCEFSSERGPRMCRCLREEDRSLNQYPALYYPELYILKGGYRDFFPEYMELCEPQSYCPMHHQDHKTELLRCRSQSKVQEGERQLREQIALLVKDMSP

[5] = target: T3, human Chk1 (Accession number AF016582) protein prepared as a fusion protein with glutathione S-transferase (GST) (UniProt O14757)
T3 sequence: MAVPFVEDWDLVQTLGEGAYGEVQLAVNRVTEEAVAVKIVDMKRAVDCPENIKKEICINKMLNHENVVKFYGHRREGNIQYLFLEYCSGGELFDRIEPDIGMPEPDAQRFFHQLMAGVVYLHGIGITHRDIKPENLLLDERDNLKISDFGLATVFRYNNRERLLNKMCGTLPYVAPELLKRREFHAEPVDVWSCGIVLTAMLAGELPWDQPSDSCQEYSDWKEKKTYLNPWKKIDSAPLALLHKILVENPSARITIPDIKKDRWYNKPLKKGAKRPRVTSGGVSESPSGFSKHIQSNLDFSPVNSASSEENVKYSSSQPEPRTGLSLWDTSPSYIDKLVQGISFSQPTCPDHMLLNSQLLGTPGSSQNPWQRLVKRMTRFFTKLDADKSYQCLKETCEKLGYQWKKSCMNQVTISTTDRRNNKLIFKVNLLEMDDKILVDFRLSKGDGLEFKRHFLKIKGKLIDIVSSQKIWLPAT

GST-weel (Accession number U10564), sequence (P30291 whole entry, looked up): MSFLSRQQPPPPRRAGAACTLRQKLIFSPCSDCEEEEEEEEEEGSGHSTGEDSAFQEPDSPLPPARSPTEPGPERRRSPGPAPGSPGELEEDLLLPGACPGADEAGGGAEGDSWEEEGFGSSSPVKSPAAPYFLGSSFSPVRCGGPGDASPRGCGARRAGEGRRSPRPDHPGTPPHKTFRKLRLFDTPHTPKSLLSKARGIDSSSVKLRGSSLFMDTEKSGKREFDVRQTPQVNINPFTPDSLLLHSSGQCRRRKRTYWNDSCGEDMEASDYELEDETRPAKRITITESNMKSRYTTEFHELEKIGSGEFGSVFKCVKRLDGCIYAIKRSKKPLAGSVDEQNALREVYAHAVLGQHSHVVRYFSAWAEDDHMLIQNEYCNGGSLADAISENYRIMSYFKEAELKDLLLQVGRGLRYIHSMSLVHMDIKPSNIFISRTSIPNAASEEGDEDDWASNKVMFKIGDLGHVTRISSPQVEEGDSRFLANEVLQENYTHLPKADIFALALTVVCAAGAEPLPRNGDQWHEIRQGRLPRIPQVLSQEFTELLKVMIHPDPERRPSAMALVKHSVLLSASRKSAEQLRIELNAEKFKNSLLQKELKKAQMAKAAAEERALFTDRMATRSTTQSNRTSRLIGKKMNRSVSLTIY

Substance | in vitro kinase assay ([gamma-32P]ATP, SDS-PAGE, autoradiography) [1] | in vitro kinase assay ([gamma-32P]ATP, SDS-PAGE, autoradiography) [2] | in vitro kinase assay ([gamma-32P]ATP, SDS-PAGE, autoradiography) [3] | in vitro kinase assay ([gamma-32P]ATP, SDS-PAGE, autoradiography) [4] | in vitro kinase assay ([gamma-32P]ATP, SDS-PAGE, autoradiography) [5]
hCds1 KM mutant (249th lysine converted to methionine, myc/6xHis-tagged, expressed in Sf9 cells) | failed to phosphorylate any substrate | failed to phosphorylate any substrate | failed to phosphorylate any substrate | failed to phosphorylate any substrate | failed to phosphorylate any substrate
recombinant "hCds1" (human Cds1, wild type, myc/6xHis-tagged, expressed in Sf9 cells) | efficiently phosphorylated | efficiently phosphorylated | hardly phosphorylated | efficiently phosphorylated | hardly phosphorylated
